The nature of this data set: Sensitivity of TRAP phosphorylation to acidic and basic conditions. It is filed as physicochemical, Staphylococcus aureus. The text has this:
Two-component systems act through phosphorylation of the substrate domain of the sensor protein and subsequent transfer of the phosphate to an aspartate residue in the regulator protein. The initial phosphorylation is catalyzed by a protein histidine kinase domain in the sensor protein and results in an N-phosphorylated histidine residue, which is stable in alkaline conditions but not in acidic conditions (Wei et al. Methods Enymol. 200:388-414 (1991)). To test whether TRAP may be histidine-phosphorylated and therefore a candidate sensor to RAP, phosphorylated TRAP was tested for sensitivity to acidic and basic conditions. Phosphorylated TRAP was incubated at pH ranging from 3-10, for 10 min at room temperature. The mixture was then applied to SDS PAGE and the gel autoradiographed.

B1: Phosphorylated TRAP: approximately 21 kDa S. aureus protein target of RAP, SEQ ID NO:2, phosphorylated by RAP (protein)
chain: MKKLYTSYGTYGFLHQIKINNPTHQLFQFSASDTSVIFEETDGETVLKSPSIYEVIKEIGEFSEHHFYCAIFIPSTEDHAYQLEKKLISVDDNFRNFGGFKSYRLLRPAKGTTYKIYFGFADRHAYEDFKQSDAFNDHFSKDALSHYFGSSGQHSSYFERYLYPIKE
modifications: phosphorylated
On to B1, for which, under “lower pHs (range tested pH 3-10), 10 min at room temperature”, the “Stability of TRAP phosphorylation in lower pHs” value is “labile”. Also, where the note is “pH 8-10, 10 min at room temperature”, the “Stability of TRAP phosphorylation at pH 8-10” value is “stable”.
